Measurements taken from publication PMC5035961.
“And” between values parts separate entries of the source, which are not always exact repeats. Equal values may be shown once.

Assays:
[1] = molecular target: Influenza B nucleoprotein (strain B/Memphis/13/03) (influenza B virus, strain B/Memphis/13/03); assay: SEC-MALLS
[2] = molecular target: Influenza B nucleoprotein (strain B/Memphis/13/03) (influenza B virus, strain B/Memphis/13/03); assay: negative stain electron microscopy

In the case of “Influenza B nucleoprotein (strain B/Memphis/13/03) (natural protein)”, the stoichiometry N [1] is reported as 5 and 2 and 4 and the stoichiometry N [2] is reported as 2 and 4 and 5.
